The supplement of paper PMC10724198
± gives the standard deviation of the averaged measurements.

system: Saccharomyces cerevisiae; test: protein stability index of tFT-peptide fusion (C-terminal peptide) (PSI (0-1 scale)); higher = more stable (slower turnover); settings: genetic background: das1 deletion; temperature: 30 C
Description: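 MPS profiling in S. cerevisiae of the yeast C-terminome library: the last 12 aa of each annotated ORF are fused to the C-terminus of a sfGFP-mCherry timer, after a GGGS linker. Cells are FACS-sorted into 8 mCherry/sfGFP bins and deep-sequenced. PSI runs from 0 (unstable) to 1 (stable); wild type and das1Δ backgrounds, two technical replicates each.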

Row | Sequence | protein stability index
1 | QKTAQQKNCSIM [YNL234W C-terminal 12 aa] | 0.746 ± 0.018
2 | QLAIALSLSEIN [UFO1 C-terminal 12 aa] | 0.694 ± 0.011
3 | QLISTPIKDNEH [KIC1 C-terminal 12 aa] | 0.693 ± 0.018
4 | QLKLLNALDSVD [YDR537C C-terminal 12 aa] | 0.696 ± 0.011
5 | QLLNDSPLEDKF [FBP26 C-terminal 12 aa] | 0.711 ± 0.026
6 | QLMYEQDDEEVP [HAP3 C-terminal 12 aa] | 0.718 ± 0.015
7 | QNARAAFKSTLV [YDR514C C-terminal 12 aa] | 0.707 ± 0.012
8 | QPSSASCLFILI [AHT1 C-terminal 12 aa] | 0.716 ± 0.023
9 | QQFYKDVYAMQD [THI2 C-terminal 12 aa] | 0.74 ± 0.018
10 | QSLPPTLKVNRL [RPL38 C-terminal 12 aa] | 0.672 ± 0.012
11 | QTAISMNDEDDA [GVP36 C-terminal 12 aa] | 0.712 ± 0.013
12 | QTLDSEYNTILQ [GAT2 C-terminal 12 aa] | 0.704 ± 0.024
13 | QTSGTFLHFSRP [YEL075W-A C-terminal 12 aa] | 0.712 ± 0.01
14 | QTSKGPENLQFS [RAD53 C-terminal 12 aa] | 0.71 ± 0.05
15 | QVNKPGPLTVPF [MEH1 C-terminal 12 aa] | 0.702 ± 0.015
16 | QWMNEMVERWAN [SOH1 C-terminal 12 aa] | 0.707 ± 0.0074
17 | RAKTMNRSQSHV [PFK26 C-terminal 12 aa] | 0.697 ± 0.0089
18 | RAYCVGFKWVRF [MCH5 C-terminal 12 aa] | 0.675 ± 0.02
19 | RDWSSFSKDYEI [PMS1 C-terminal 12 aa] | 0.7561 ± 0.0022
20 | RGRIAAQKRIAA [RPL17A C-terminal 12 aa] | 0.667 ± 0.0084
21 | RKFFKRMTNFWC [TAT1 C-terminal 12 aa] | 0.7409 ± 0.0066

Row | Sequence | protein stability index
22 | RKRFSYTQTKNK [RSM19 C-terminal 12 aa] | 0.678 ± 0.013
23 | RKSKRVLPVSKF [PET309 C-terminal 12 aa] | 0.783 ± 0.0088
24 | RLIFYPDEYEQL [PRE3 C-terminal 12 aa] | 0.743 ± 0.012
25 | RLKPRQIVPKRS [SLI15 C-terminal 12 aa] | 0.7194 ± 0.0028
26 | RLKSQNVVTYYK [NIP100 C-terminal 12 aa] | 0.707 ± 0.032
27 | RLSRWFNETENI [MEI4 C-terminal 12 aa] | 0.756 ± 0.043
28 | RMLMGTTKRGRF [YAL037W C-terminal 12 aa] | 0.704 ± 0.02
29 | RNVDKLDVFSNS [MRM2 C-terminal 12 aa] | 0.716 ± 0.019
30 | RPQYRRIAALEE [PSY3 C-terminal 12 aa] | 0.695 ± 0.023
31 | RQEEIKKRTALV [DPC25 C-terminal 12 aa] | 0.705 ± 0.0089
32 | RRFDVYSDVNAH [NIT3 C-terminal 12 aa] | 0.71 ± 0.0033
33 | RSFVTRFLHFWC [HIP1 C-terminal 12 aa] | 0.777 ± 0.024
34 | RSIRWFREAGGK [SKI8 C-terminal 12 aa] | 0.695 ± 0.018
35 | RSKYGAKKPSKS [MRPS12 C-terminal 12 aa] | 0.6815 ± 0.0025
36 | RSNAERKRRSPL [PBP2 C-terminal 12 aa] | 0.7121 ± 0.0039
37 | RSTNGRPQRGYR [YLR326W C-terminal 12 aa] | 0.675 ± 0.027
38 | RSWDEFIGFKAY [CPA2 C-terminal 12 aa] | 0.745 ± 0.03
39 | RTAAESIANDRK [FRD1 C-terminal 12 aa] | 0.674 ± 0.0068
40 | RTLGYSNNNGNN [UBX6 C-terminal 12 aa] | 0.679 ± 0.019
41 | RTNHIYNYENSD [DFG16 C-terminal 12 aa] | 0.703 ± 0.0077
42 | RVRTLARKHLSK [TRS20 C-terminal 12 aa] | 0.692 ± 0.02

Row | Sequence | protein stability index
43 | SAEGSDVLYMQK [LSM7 C-terminal 12 aa] | 0.671 ± 0.0093
44 | SAENEESKEKCE [LAG1 C-terminal 12 aa] | 0.696 ± 0.051
45 | SAIGSDIVNSIF [LSB1 C-terminal 12 aa] | 0.7044 ± 0.0053
46 | SAQRDRRYRKRV [RPS17A C-terminal 12 aa] | 0.6665 ± 0.0025
47 | SCGCGSSFDIEN [ISA2 C-terminal 12 aa] | 0.704 ± 0.015
48 | SDDDVSSESEEE [BDF1 C-terminal 12 aa] | 0.6997 ± 0.0067
49 | SDGFANNRCQRK [YOR034C-A C-terminal 12 aa] | 0.658 ± 0.0075
50 | SDVISEESYNEA [SVF1 C-terminal 12 aa] | 0.7069 ± 0.0026
51 | SELQQIFPVSQQ [SPS100 C-terminal 12 aa] | 0.706 ± 0.011
52 | SEPTNDDLDATK [MRX10 C-terminal 12 aa] | 0.678 ± 0.033
53 | SESNDGESSDSD [RPA43 C-terminal 12 aa] | 0.656 ± 0.021
54 | SFKAYVGLPTTG [PIC2 C-terminal 12 aa] | 0.706 ± 0.01
55 | SFPVVEPMGGST [BDS1 C-terminal 12 aa] | 0.69 ± 0.012
56 | SFRPKSSNNPFR [ENT4 C-terminal 12 aa] | 0.734 ± 0.02
57 | SFRSSHFYSLIA [YLR217W C-terminal 12 aa] | 0.691 ± 0.012
58 | SFTHQEQDTEMN [NAB2 C-terminal 12 aa] | 0.708 ± 0.032
59 | SFVTKKKAACYR [YIL025C C-terminal 12 aa] | 0.717 ± 0.011
60 | SGIVENDFENRS [YOR1 C-terminal 12 aa] | 0.707 ± 0.013
61 | SGKLASKKRDKK [MRPL36 C-terminal 12 aa] | 0.684 ± 0.021
62 | SHHPHKNGKISF [YKR011C C-terminal 12 aa] | 0.719 ± 0.028
63 | SHPIDVNLQFIM [MCA1 C-terminal 12 aa] | 0.735 ± 0.013

Row | Sequence | protein stability index
64 | SISHPENKVLHK [YNL195C C-terminal 12 aa] | 0.689 ± 0.0083
65 | SIVYSWKENSSS [YGL217C C-terminal 12 aa] | 0.704 ± 0.031
66 | SKGKNSESGGIF [PPR1 C-terminal 12 aa] | 0.699 ± 0.026
67 | SKKSKKSKKSEE [MRH1 C-terminal 12 aa] | 0.719 ± 0.0089
68 | SKNDSPKKKGWF [MAS2 C-terminal 12 aa] | 0.694 ± 0.027
69 | SLDVGKILDVTI [PSR1 C-terminal 12 aa] | 0.686 ± 0.012
70 | SLFPSLETEDKK [MIH1 C-terminal 12 aa] | 0.674 ± 0.0077
71 | SLGSVFTILTDS [YGR228W C-terminal 12 aa] | 0.72 ± 0.0074
72 | SLKDLIMQVTKM [CTO1 C-terminal 12 aa] | 0.753 ± 0.046
73 | SLLFVGPLFLKV [YCL007C C-terminal 12 aa] | 0.401 ± 0.016
74 | SLRPQERNLYGL [NTH1 C-terminal 12 aa] | 0.691 ± 0.021
75 | SLYMNISYILLF [YGR073C C-terminal 12 aa] | 0.44985 ± 0.00042
76 | SMKPFKRRKPFF [PRP16 C-terminal 12 aa] | 0.69 ± 0.0092
77 | SNNATHNCGNYF [YGR122W C-terminal 12 aa] | 0.712 ± 0.049
78 | SNPSSHIKKKGL [RRT6 C-terminal 12 aa] | 0.682 ± 0.014
79 | SNRTLSNETDAL [ACE2 C-terminal 12 aa] | 0.7072 ± 0.0038
80 | SPGYKAYLREER [YSF3 C-terminal 12 aa] | 0.722 ± 0.012
81 | SPPLSTSPDSRR [YLR416C C-terminal 12 aa] | 0.7198 ± 0.0012
82 | SPRLKENEHVTN [MPC54 C-terminal 12 aa] | 0.693 ± 0.013
